Here are results for 1 substance from patent US20240207313A1.

Experiment [1] has as its target T-cell receptor with TCR Vbeta 7.1 chain (H. sapiens rearranged TCR Vbeta 7.1) (H. sapiens). Put plainly: cell-based or functional assay.
The target in experiment [2] is T-cell surface glycoprotein CD4 [Homo sapiens] (Homo sapiens) (UniProt P01730). Put plainly: cell-based or functional assay.

T-cell receptor with TCR Vbeta 7.1 chain (H. sapiens rearranged TCR Vbeta 7.1) (H. sapiens), sequence (A0A577 whole entry, form in doubt): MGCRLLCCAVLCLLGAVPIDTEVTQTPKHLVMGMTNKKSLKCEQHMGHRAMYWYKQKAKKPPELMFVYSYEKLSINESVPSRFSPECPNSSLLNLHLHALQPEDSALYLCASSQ

With “CART20 anti-CD20 chimeric antigen receptor (scFv of monoclonal antibody Leu16 in the third-generation CAR backbone), expressed on transduced human T cells”, in experiment [1], the TCR Vβ7.1-positive cells remaining five days after CAR transduction (flow cytometry) came out at 1.2%. The same substance yielded a CD4-positive cells remaining in the culture after CAR transduction (flow cytometry) in experiment [2] of 45%.
